Reference: patent publication CN112375146A

Target: FMC63 scFv, His Tag
Assay: SPR; FMC63 scFv as analyte at 125, 62.5, 31.25, 15.625, 7.813, 3.906 and 1.953 nM

- Kd: 1.08 nM
B1: Y45克隆号抗体 (antibody, V domains shown)
VH: EVKLLESGGGLVQPGGSLKLSCAASGDFRYFQWMSWVRQAPGKGLEWIGEIDNLDSITKYTPSLKDKFIISRDNAKNTLYLQMRKVRSEDTALYYCRAYRYMYDPRWGQGTSVTVSS
VL: DIVLTQSPASLAVSLGQRATISCRASKVSSTSSGYYMHWYQQKPGQPPKLLIYALNNLESGVPARFSGSGSGTDFTLNVHPVEEEDAATYYCQTFYGSELPFGSGTKLEIK
